Measurements reported in IntAct's records for PubMed 24413433.

B1: Telomere repeats-binding bouquet formation protein 1 (Mus musculus), Q8C0V1-1 (parent)
chain: MESEKPKKTQEMKTDLKLLLECLKYHMGNPLSQKEVLITIHSVCKQNSDAGIYFREIGGLMFIINLAKSSEQSLVKEAALYTLGSIAEENVYCQQSLCTSELFQDLTGLLTNDDSNTNLKRMSVYVLLVLVSNNRNGQTLVREVGCIEVLSQMFRTVLSNYELNLSDNSVFQSYLLWSSVCSTLCVCVNNPQNDENQMLCCSLFPCVNEWLMNCMRPEVIRPICSFIGLTLANNTHAQNCFVSSGGLDVLCQVLVQLESDSHNTLSSAKLAVIVTKTMDACITDNSAAFTVVLSKYHIVSTLLALLLHESLDSREKFSIILAIGHCTEDCEKNQYELLKNNGLPLMIQALTEFKNEDLSKAATYVLHNCKKITGKLSLSLGQNSFGENEIELKDISEKETLREHWKAAKEILCRIKQFEKGGKEEKQQNRSGHYKDNTPSMKVNIQTNLKRLCADSTGGTRAEDKDINQSRELRSYKPSEIMSKACANENQLTTRKKNTNPVHPFCKEKGQSKIVHETTPSCAQNLDKEKTFDQKDSVSQSSDQVLKHLPHTVKNRKQVPETDPFTLCLDIIDREVGIQATDSCSRMLKYTCSGCIVARKLLNSRNFSKFLHSCAYQCVHHKVIMEAEDKYKNELRKTFICAKKILLTPCRRRQLCKESTASEELKIVHQKPDSKKLPGLEAQALNTSIPEAMERRSPVPGQSGLHKKRRIRKDFTKEEVNYLFHGVKTMGNHWNSILWSFPFQKGRRAVDLAHKYHRLIKGPSCAAL
partner: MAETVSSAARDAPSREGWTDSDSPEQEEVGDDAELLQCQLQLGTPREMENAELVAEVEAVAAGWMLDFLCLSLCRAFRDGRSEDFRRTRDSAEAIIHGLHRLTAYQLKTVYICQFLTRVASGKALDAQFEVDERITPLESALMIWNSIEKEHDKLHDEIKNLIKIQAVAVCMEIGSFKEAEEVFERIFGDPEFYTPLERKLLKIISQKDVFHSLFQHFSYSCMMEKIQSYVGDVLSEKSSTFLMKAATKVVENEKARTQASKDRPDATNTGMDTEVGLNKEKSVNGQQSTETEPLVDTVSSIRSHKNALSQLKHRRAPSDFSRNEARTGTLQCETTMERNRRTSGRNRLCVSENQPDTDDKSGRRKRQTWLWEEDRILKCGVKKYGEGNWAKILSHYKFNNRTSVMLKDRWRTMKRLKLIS

Variants of: B1
Conditions: with terf1_mouse Terf1, P70371

Row | effect of a mutation on the interaction | Variant
1 | disrupting interaction strength | T648D
